Experimental data: patent US20250011363A1, “OPTIMIZED SHORTENED PEPTIDE THAT BINDS TO ACETYLCHOLINE RECEPTOR, AND USE THEREOF” (SKINMED CO., LTD., priority 2021, published 2025)

Each substance was assayed against acetylcholine receptor (Homo sapiens, UniProt P02708) (assay: SPR binding affinity (RU) of optimized 5mer/6mer/7mer peptides, Examples 6-7). Settings: SPR, Resonance Units; peptides tested at 10 μM; 6mer-1 Bottom sequence (Table 11).
Chain of acetylcholine receptor (P02708 21-457): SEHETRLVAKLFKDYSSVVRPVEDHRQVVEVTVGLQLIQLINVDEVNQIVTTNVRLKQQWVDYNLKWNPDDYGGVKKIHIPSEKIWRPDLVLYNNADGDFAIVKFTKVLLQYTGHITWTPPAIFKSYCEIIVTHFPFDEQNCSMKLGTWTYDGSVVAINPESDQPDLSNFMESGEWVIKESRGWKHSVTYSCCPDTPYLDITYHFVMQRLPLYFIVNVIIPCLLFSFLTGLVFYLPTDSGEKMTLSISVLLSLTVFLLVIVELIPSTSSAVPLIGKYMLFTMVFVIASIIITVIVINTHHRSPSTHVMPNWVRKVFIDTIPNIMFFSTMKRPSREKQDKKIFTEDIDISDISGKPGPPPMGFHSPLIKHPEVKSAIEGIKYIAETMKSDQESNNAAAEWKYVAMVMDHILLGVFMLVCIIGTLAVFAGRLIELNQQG
In short: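 Response units from SPR give the binding values listed. Each synthesized peptide was run at 10 μM over the receptor.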
6mer-1-601 (KKEWNK) showed a Binding affinity of 27 Ru. For 6mer-1-602 (RKAEKR), the Binding affinity was 18 Ru. 6mer-1-603 (KRPHFK) was tested, and the Binding affinity was 13 Ru. 6mer-1-604 (KKFTKK) showed a Binding affinity of 24 Ru. 6mer-1-605 (RKNADR) was tested, and the Binding affinity was 20 Ru. With 6mer-1-606 (RREWFR) the Binding affinity was 15 Ru. 6mer-1-607 (KKDHFR) was tested, and the Binding affinity was 22 Ru. 6mer-1-608 (KKACMR) showed a Binding affinity of 18 Ru. 6mer-1-609 (RKNPVR) showed a Binding affinity of 24 Ru. 6mer-1-610 (KKHHER) was tested, and the Binding affinity was 27 Ru. Work on 6mer-1-611 (KKNCHK) yielded a Binding affinity of 23 Ru. Substance 6mer-1-612 (KRIMER) has a Binding affinity of 17 Ru. For 6mer-1-613 (KRIMKK), the Binding affinity was 14 Ru. 6mer-1-614 (KKEEER) gave a Binding affinity of 12 Ru. 6mer-1-615 (KKTSER) gave a Binding affinity of 18 Ru. With 6mer-1-616 (KKNTIK) the Binding affinity was 31 Ru. In the case of 6mer-1-617 (KRHNVR), the Binding affinity is reported as 31 Ru. For 6mer-1-618 (RKCHVK), the Binding affinity was 19 Ru. For 6mer-1-619 (KKIDKR), the Binding affinity was 23 Ru. For 6mer-1-620 (RRKTAK), the Binding affinity was 11 Ru. In the case of 6mer-1-621 (RRMAGK), the Binding affinity is reported as 30 Ru. Work on 6mer-1-622 (KKCPNR) yielded a Binding affinity of 18 Ru. 6mer-1-623 (RRTDWR) showed a Binding affinity of 21 Ru. 6mer-1-624 (KKPPAK) showed a Binding affinity of 30 Ru. For 6mer-1-625 (KREDKK), the Binding affinity was 33 Ru. In the case of 6mer-1-626 (KRPDNR), the Binding affinity is reported as 27 Ru. 6mer-1-627 (RRTWWR) showed a Binding affinity of 29 Ru. 6mer-1-628 (RRENEK) gave a Binding affinity of 23 Ru. 6mer-1-629 (RKMDAK) gave a Binding affinity of 11 Ru. 6mer-1-630 (KRMEPR) gave a Binding affinity of 14 Ru. 6mer-1-631 (RRYSDR) was tested, and the Binding affinity was 13 Ru. Substance 6mer-1-632 (RKDTAR) has a Binding affinity of 17 Ru. 6mer-1-633 (RKIDAK) gave a Binding affinity of 16 Ru. 6mer-1-634 (KKNTMR) showed a Binding affinity of 12 Ru. For 6mer-1-635 (KKTTWK), the Binding affinity was 33 Ru. 6mer-1-636 (RKYKDR) showed a Binding affinity of 27 Ru. 6mer-1-637 (RRFEFK) gave a Binding affinity of 33 Ru. Work on 6mer-1-638 (KKESHR) yielded a Binding affinity of 20 Ru. 6mer-1-639 (KRPNVR) showed a Binding affinity of 24 Ru. Substance 6mer-1-640 (RRNCWR) has a Binding affinity of 25 Ru. Substance 6mer-1-641 (RREMFK) has a Binding affinity of 21 Ru. 6mer-1-642 (KKYNGK) was tested, and the Binding affinity was 24 Ru. 6mer-1-643 (KRYSMR) was tested, and the Binding affinity was 31 Ru. For 6mer-1-644 (RKTWFR), the Binding affinity was 31 Ru. Work on 6mer-1-645 (RRTTIR) yielded a Binding affinity of 33 Ru. 6mer-1-646 (RRCTGK) showed a Binding affinity of 33 Ru. Substance 6mer-1-647 (RKYNVR) has a Binding affinity of 14 Ru. In the case of 6mer-1-648 (KKFWEK), the Binding affinity is reported as 17 Ru. Work on 6mer-1-649 (RRIAGK) yielded a Binding affinity of 32 Ru.

Same assay, conditions: SPR, peptides tested at 10 μM; 6mer-1 Top sequence
6mer-1-490 (KKLFRR) showed a Binding affinity of 133 Ru. Substance 6mer-1-491 (RKLRLR) has a Binding affinity of 137 Ru. 6mer-1-492 (RRWRQK) showed a Binding affinity of 139 Ru. 6mer-1-493 (KRGYLR) showed a Binding affinity of 131 Ru. Work on 6mer-1-494 (KKLFSR) yielded a Binding affinity of 128 Ru. For 6mer-1-495 (RKGFQR), the Binding affinity was 126 Ru. 6mer-1-496 (RRVYQR) showed a Binding affinity of 148 Ru. 6mer-1-497 (KRRQLR) showed a Binding affinity of 133 Ru. Substance 6mer-1-498 (RKRQQK) has a Binding affinity of 139 Ru. 6mer-1-499 (RKLFYR) was tested, and the Binding affinity was 149 Ru. 6mer-1-500 (RKLQSK) showed a Binding affinity of 151 Ru. With 6mer-1-501 (KRVLYK) the Binding affinity was 154 Ru. Substance 6mer-1-502 (RKLFSR) has a Binding affinity of 146 Ru. For 6mer-1-503 (KRRLCK), the Binding affinity was 151 Ru. 6mer-1-504 (RRSITR) showed a Binding affinity of 122 Ru. For 6mer-1-505 (RRRFTR), the Binding affinity was 148 Ru. Substance 6mer-1-506 (RRRLSK) has a Binding affinity of 151 Ru. For 6mer-1-507 (RRSQSK), the Binding affinity was 139 Ru. Work on 6mer-1-508 (RRQFSK) yielded a Binding affinity of 135 Ru. For 6mer-1-509 (RKWLRK), the Binding affinity was 128 Ru. In the case of 6mer-1-510 (KRRQSR), the Binding affinity is reported as 122 Ru. For 6mer-1-511 (RKVYRR), the Binding affinity was 136 Ru. Substance 6mer-1-512 (RKWICK) has a Binding affinity of 154 Ru. 6mer-1-513 (RKQIRR) showed a Binding affinity of 154 Ru. Substance 6mer-1-514 (KKGRSK) has a Binding affinity of 128 Ru. With 6mer-1-515 (RRGLSR) the Binding affinity was 139 Ru. Work on 6mer-1-516 (KKRFSR) yielded a Binding affinity of 139 Ru. With 6mer-1-517 (KKGLCK) the Binding affinity was 139 Ru. Work on 6mer-1-518 (KRWVLK) yielded a Binding affinity of 153 Ru. 6mer-1-519 (KRRQCK) was tested, and the Binding affinity was 147 Ru. 6mer-1-520 (KRQIYK) gave a Binding affinity of 127 Ru. 6mer-1-521 (RKVISR) gave a Binding affinity of 128 Ru. Work on 6mer-1-522 (RKRRLR) yielded a Binding affinity of 126 Ru. 6mer-1-523 (KRRRSK) was tested, and the Binding affinity was 139 Ru. Work on 6mer-1-524 (KKGRQK) yielded a Binding affinity of 148 Ru. With 6mer-1-525 (RRQLRR) the Binding affinity was 139 Ru. 6mer-1-526 (KRGYTR) was tested, and the Binding affinity was 148 Ru. Substance 6mer-1-527 (KKGIYR) has a Binding affinity of 142 Ru. Substance 6mer-1-528 (KRSYTR) has a Binding affinity of 139 Ru. For 6mer-1-529 (RRSLCK), the Binding affinity was 139 Ru. 6mer-1-530 (KRLVSK) showed a Binding affinity of 137 Ru. For 6mer-1-531 (RKGQTK), the Binding affinity was 135 Ru. 6mer-1-532 (KKSQLR) showed a Binding affinity of 121 Ru. For 6mer-1-533 (RKWFSR), the Binding affinity was 145 Ru. For 6mer-1-534 (KKRLCR), the Binding affinity was 126 Ru. Substance 6mer-1-535 (RRVILK) has a Binding affinity of 139 Ru. Substance 6mer-1-536 (RRWFRK) has a Binding affinity of 151 Ru. 6mer-1-537 (RRGLCK) gave a Binding affinity of 154 Ru. For 6mer-1-538 (RRSQCK), the Binding affinity was 142 Ru. 6mer-1-539 (KRGIRK) gave a Binding affinity of 148 Ru. Work on 6mer-1-540 (KRVQTR) yielded a Binding affinity of 128 Ru. 6mer-1-541 (RKWFTR) showed a Binding affinity of 136 Ru. 6mer-1-542 (KRWFRR) showed a Binding affinity of 128 Ru. In the case of 6mer-1-543 (RRSVCK), the Binding affinity is reported as 145 Ru. 6mer-1-544 (KRVICR) showed a Binding affinity of 149 Ru. Work on 6mer-1-545 (RRSYRK) yielded a Binding affinity of 127 Ru. Substance 6mer-1-546 (RKLVQR) has a Binding affinity of 123 Ru. 6mer-1-547 (RKVQQR) gave a Binding affinity of 148 Ru. 6mer-1-548 (RRVYSR) gave a Binding affinity of 123 Ru. With 6mer-1-549 (KKSYQR) the Binding affinity was 142 Ru. Substance 6mer-1-550 (RRLICR) has a Binding affinity of 148 Ru. For 6mer-1-551 (KRGRLR), the Binding affinity was 142 Ru. Substance 6mer-1-552 (RKRYRK) has a Binding affinity of 144 Ru. In the case of 6mer-1-553 (RRGVRK), the Binding affinity is reported as 128 Ru. Work on 6mer-1-554 (KRSVTR) yielded a Binding affinity of 131 Ru. Substance 6mer-1-555 (KKWYLK) has a Binding affinity of 128 Ru. In the case of 6mer-1-556 (KKGFTK), the Binding affinity is reported as 145 Ru. In the case of 6mer-1-557 (KRQVQK), the Binding affinity is reported as 128 Ru. For 6mer-1-558 (RRLIQR), the Binding affinity was 139 Ru. 6mer-1-559 (RRRLTK) gave a Binding affinity of 139 Ru. Work on 6mer-1-560 (RRSFSK) yielded a Binding affinity of 127 Ru. In the case of 6mer-1-561 (RKVYLK), the Binding affinity is reported as 131 Ru. For 6mer-1-562 (KRSYQR), the Binding affinity was 148 Ru. For 6mer-1-563 (RRSFTR), the Binding affinity was 139 Ru. Substance 6mer-1-564 (KRSITK) has a Binding affinity of 139 Ru. In the case of 6mer-1-565 (KRSIRR), the Binding affinity is reported as 151 Ru. With 6mer-1-566 (KKSFCR) the Binding affinity was 148 Ru. In the case of 6mer-1-567 (KKRVSR), the Binding affinity is reported as 136 Ru. In the case of 6mer-1-568 (KRWQQK), the Binding affinity is reported as 147 Ru. Substance 6mer-1-569 (RRVITK) has a Binding affinity of 148 Ru. 6mer-1-570 (RKRLRK) showed a Binding affinity of 122 Ru. Substance 6mer-1-571 (RKLLCK) has a Binding affinity of 154 Ru. With 6mer-1-572 (KRVLLK) the Binding affinity was 126 Ru. In the case of 6mer-1-573 (KRVLLR), the Binding affinity is reported as 126 Ru. With 6mer-1-574 (RKSYLR) the Binding affinity was 148 Ru. With 6mer-1-575 (KRWVRR) the Binding affinity was 148 Ru. In the case of 6mer-1-576 (RKRQRR), the Binding affinity is reported as 153 Ru. Substance 6mer-1-577 (KKQYQR) has a Binding affinity of 128 Ru. 6mer-1-578 (RKGQYK) gave a Binding affinity of 139 Ru. In the case of 6mer-1-579 (KRSVRK), the Binding affinity is reported as 148 Ru. 6mer-1-580 (KKSLQK) was tested, and the Binding affinity was 121 Ru. 6mer-1-581 (KRGLYK) was tested, and the Binding affinity was 139 Ru. Substance 6mer-1-582 (KRWFLK) has a Binding affinity of 137 Ru. With 6mer-1-583 (KKVLYK) the Binding affinity was 139 Ru. Substance 6mer-1-584 (RKQVSK) has a Binding affinity of 127 Ru. Substance 6mer-1-585 (RKSRQK) has a Binding affinity of 144 Ru. Work on 6mer-1-586 (KRVICK) yielded a Binding affinity of 136 Ru. For 6mer-1-587 (KKQLLK), the Binding affinity was 148 Ru. In the case of 6mer-1-588 (RRLVRK), the Binding affinity is reported as 153 Ru. Substance 6mer-1-589 (KKLQQK) has a Binding affinity of 139 Ru. With 6mer-1-590 (RKGVTK) the Binding affinity was 142 Ru. With 6mer-1-591 (KKRLYR) the Binding affinity was 147 Ru. Substance 6mer-1-592 (RRWLSK) has a Binding affinity of 135 Ru. Work on 6mer-1-593 (RKVYRK) yielded a Binding affinity of 148 Ru. Substance 6mer-1-594 (KRQLQR) has a Binding affinity of 121 Ru. Work on 6mer-1-595 (KKSLCK) yielded a Binding affinity of 121 Ru. 6mer-1-596 (RKGVLR) was tested, and the Binding affinity was 148 Ru. With 6mer-1-597 (KRGFYK) the Binding affinity was 148 Ru. For 6mer-1-598 (RKWLSK), the Binding affinity was 142 Ru. Work on 6mer-1-599 (KKLYQR) yielded a Binding affinity of 124 Ru. Work on 6mer-1-600 (KRGYCR) yielded a Binding affinity of 139 Ru.
